Test results reported in publication PMC10567701 (Nature Communications, 2023).
Where no end group is shown, it is not given here.

B1: LptM^His (natural protein, Escherichia coli, UniProt P0ADN6 20-67, looked up)
chain: CGLKGPLYFPPADKNAPPPTKPVETQTQSTVPDKNDRATGDGPSQVNY
modifications: also: tri-acylated
notes: LptM (formerly YifL), E. coli, UniProt P0ADN6; mature and tri-acylated lipoprotein (theoretical mass with the tag 6,988 Da); also called C-terminally poly-histidine tagged version of E. coli LptM; YifL; source: E. coli BW25113 ΔlptM, overproduced from pLptDEM^His or pLptM^His; DDM-solubilized envelope fraction; not shown: poly-histidine, C-terminal, kept
B2: LptD (natural protein, Escherichia coli, UniProt P31554 25-784, looked up)
chain: ADLASQCMLGVPSYDRPLVQGDTNDLPVTINADHAKGDYPDDAVFTGSVDIMQGNSRLQADEVQLHQKEAPGQPEPVRTVDALGNVHYDDNQVILKGPKGWANLNTKDTNVWEGDYQMVGRQGRGKADLMKQRGENRYTILDNGSFTSCLPGSDTWSVVGSEIIHDREEQVAEIWNARFKVGPVPIFYSPYLQLPVGDKRRSGFLIPNAKYTTTNYFEFYLPYYWNIAPNMDATITPHYMHRRGNIMWENEFRYLSQAGAGLMELDYLPSDKVYEDEHPNDDSSRRWLFYWNHSGVMDQVWRFNVDYTKVSDPSYFNDFDNKYGSSTDGYATQKFSVGYAVQNFNATVSTKQFQVFSEQNTSSYSAEPQLDVNYYQNDVGPFDTRIYGQAVHFVNTRDDMPEATRVHLEPTINLPLSNNWGSINTEAKLLATHYQQTNLDWYNSRNTTKLDESVNRVMPQFKVDGKMVFERDMEMLAPGYTQTLEPRAQYLYVPYRDQSDIYNYDSSLLQSDYSGLFRDRTYGGLDRIASANQVTTGVTSRIYDDAAVERFNISVGQIYYFTESRTGDDNITWENDDKTGSLVWAGDTYWRISERWGLRGGIQYDTRLDNVATSNSSIEYRRDEDRLVQLNYRYASPEYIQATLPKYYSTAEQYKNGISQVGAVASWPIADRWSIVGAYYYDTNANKQADSMLGVQYSSCCYAIRVGYERKLNGWDNDKQHAVYDNAIGFNIELRGLSSNYGLGTQEMLRSNILPYQNTL
notes: LptD, E. coli, UniProt P31554; mature protein (theoretical mass 87,080 Da); Untagged; Cysteines at 31, 173, 724 and 725 (C1 to C4); the mature oxidized form LptD^Ox has the disulfides C1-C3 and C2-C4; samples from ΔlptM cells also hold partially oxidized forms; also called LptD^CCCC; wild-type LptD; source: E. coli BW25113 (wild-type or ΔlptM), overproduced from pLptDE^His or pLptDEM^His; …
B3: LptE^His (natural protein)
chain: not shown
modifications: tri-acylated (mature and tri-acylated protein)
notes: LptE, E. coli, UniProt P0ADC1; mature and tri-acylated lipoprotein (theoretical mass with the tag 21,348 Da); also called C-terminally poly-histidine tagged variant of LptE; source: E. coli BW25113 (wild-type or ΔlptM), overproduced from pLptDE^His or pLptDME^His; DDM-solubilized envelope fraction; not shown: poly-histidine, C-terminal, kept
B4: LptE (natural protein)
chain: not shown
modifications: tri-acylated (mature and tri-acylated protein)
notes: LptE, E. coli, UniProt P0ADC1; mature and tri-acylated lipoprotein (theoretical mass 20,248 Da); Untagged; source: E. coli BW25113 ΔlptM, overproduced from pLptDEM^His; DDM-solubilized envelope fraction

Tests used:
LptE [1] = molecular target: B4; test: HDX-MS; LPS translocon produced in the presence or absence of LptM, purified in detergent micelles; 20 μM protein diluted in deuterated buffer (20 mM MES pH 6.5, 200 mM NaCl), 20 °C, 0.5 to 30 min; pepsin digestion; details: both partners purified
LptD [2] = molecular target: B2; test: as above; details: both partners purified
LptE [3] = molecular target: B4; test: native MS; co-expressed and Ni-affinity co-purified complexes LptDE^His and LptDEM^His, ~10-20 μM in 200 mM ammonium acetate pH 7.4, 0.03% DDM; nano-electrospray, positive ion mode; details: both partners purified
LptM^His = molecular target: B1; test: as above; details: both partners purified
LptD [4] = molecular target: B2; test: pull-down; Ni-affinity purification of LptE^His from the DDM-solubilized envelope fraction of wild-type (lptM^+) cells with pLptDE^His; Ni-NTA 2 h at 4 °C, 50 mM Tris-HCl pH 8, 150 mM NaCl, DDM; SDS-PAGE or BN-PAGE, Coomassie staining or Western blotting; details: partners not purified

B1
binding result (LptE [1]): binds | binding result (LptD [2]): binds

B2
stoichiometry N (LptE [3]): 1 | stoichiometry N (LptM^His): 1

B3
binding result (LptD [4]): binds

B4
stoichiometry N (LptM^His): 1
